Laboratory results published in PMC7291361 (ACS infectious diseases, 2020).

Biological target: H1 SI-06 HA FLsE (Influenza A virus A/Solomon …, UniProt A7UPX0, strain)
Assay: ELISA

B1: K03.12 IgG (antibody, V domains shown)
VH: QVQLVQSGAEVKKPGASVKVSCKTSGYTFTAYYLHWVRQAPGQGFEWMAWINPNTGDTNYAQKFQGRVTLSRDTSITTAYMELTRLRSDDTAVYYCAKDLTLMYVFDSGWARGAHDYYGMDVWGQGTTVAVSG
VL: PSALTQPASVSGSPGQSVTISCTGTNSDVGTFDLVSWYQQYPGKAPKLIIYEGSRRPSGVSDRFSGSKSGNTASLTISGLQAEDEADYYCSSYAGSVVFGGGTKLTVL
  binding result: binds
